Measured values reported in US20230365712A1.

Biological target: Notch4^GFP expressed in transfected Jurkat cells

Substance: Jagged1 (ligand)
- Notch4-GFP positive cells (%), Jagged1 without mAb: 53.5%
